The text below walks through data of patent US20140303084A1 (Biogen, published 2014).

Primed or numbered codes have the meaning given here. Ends that are not written are not given here. * marks the point of attachment. Biotin = O=C1N[C@H]2[C@H](CS[C@H]2CCCCC(=O)*)N1; PEG2(3) = PEG2 spacer carrying biotin on Lys

The labels stand for the following.
B1: RYQRARLTCLASYCGLLFSMSA (peptide)
peptide: RYQRARLTCLASYCGLLFSMSA
B2: RFQTTQLTCLGSASCLFNLSVR (peptide)
peptide: RFQTTQLTCLGSASCLFNLSVR
B3: VGEHRKISCVASNCQLLRSGLA (peptide)
peptide: VGEHRKISCVASNCQLLRSGLA
B4: AVAINKVPCVASYCQLFESKIH (peptide)
peptide: AVAINKVPCVASYCQLFESKIH
B5: APPGGKRMCLVSGCQLFPWSAS (peptide)
peptide: APPGGKRMCLVSGCQLFPWSAS
B6: GCSSDKLTARTRHCSMFQPLSV (peptide)
peptide: GCSSDKLTARTRHCSMFQPLSV
B7: QLTCLASYCGGV (peptide)
peptide: QLTCLASYCGGV
B8: GFGSRKLTSLASYGWLIQDRLP (peptide)
peptide: GFGSRKLTSLASYGWLIQDRLP
B9: KLKCLSSECQLL (peptide)
peptide: KLKCLSSECQLL
B10: EGRRDKLTCLASYCWLVGHGQH (peptide)
peptide: EGRRDKLTCLASYCWLVGHGQH
B11: MEGTRQPTCLASYCSPFQYVAP (peptide)
peptide: MEGTRQPTCLASYCSPFQYVAP
B12: QDGDGKLTCRASYCRRFLVGVH (peptide)
peptide: QDGDGKLTCRASYCRRFLVGVH
B13: HYARVQLRCLDGYCWLLTKSRM (peptide)
peptide: HYARVQLRCLDGYCWLLTKSRM
B14: LRTQPKVTGLASCSGLVNCSRD (peptide)
peptide: LRTQPKVTGLASCSGLVNCSRD
B15: VDKGHQLRCQAGYCWLLGYNRE (peptide)
peptide: VDKGHQLRCQAGYCWLLGYNRE
B16: VAHYGKVTCLASYCQPLPSVGA (peptide)
peptide: VAHYGKVTCLASYCQPLPSVGA
B17: YARDSTLTCQARTCQLVDYLGP (peptide)
peptide: YARDSTLTCQARTCQLVDYLGP
B18: QLPCLASYCGLF (peptide)
peptide: QLPCLASYCGLF
B19: RPGGGKVTCQASYCWPFLARAG (peptide)
peptide: RPGGGKVTCQASYCWPFLARAG
B20: GGALQQLTCPASYCWLFPMEHS (peptide)
peptide: GGALQQLTCPASYCWLFPMEHS
B21: MAGMLKLTCFASYCGLFPLVSS (peptide)
peptide: MAGMLKLTCFASYCGLFPLVSS
B22: SGRGGKLTCQASFCQLFGNGLS (peptide)
peptide: SGRGGKLTCQASFCQLFGNGLS
B23: EQTCLASYCWLF (peptide)
peptide: EQTCLASYCWLF
B24: KLTCLASYCQLV (peptide)
peptide: KLTCLASYCQLV
B25: RCAQSRLPWLVSYCWLFSPYGM (peptide)
peptide: RCAQSRLPWLVSYCWLFSPYGM
B26: GIQGSEVACRASFCRLFEQGHV (peptide)
peptide: GIQGSEVACRASFCRLFEQGHV
B27: RRCPGKLQALASYCWLFWTGIA (peptide)
peptide: RRCPGKLQALASYCWLFWTGIA
B28: ERYRLDMTCMASQCWQFPPAAG (peptide)
peptide: ERYRLDMTCMASQCWQFPPAAG
B29: GSCRDQLTCLSSDRWQFFRRVS (peptide)
peptide: GSCRDQLTCLSSDRWQFFRRVS
B30: AWPYHKPTCLASQCWQFLAQGS (peptide)
peptide: AWPYHKPTCLASQCWQFLAQGS
B31: SLADTQLTWLARQYWLSVSEGS (peptide)
peptide: SLADTQLTWLARQYWLSVSEGS
B32: TLDSKNLQCLGSSCWLFSSGLS (peptide)
peptide: TLDSKNLQCLGSSCWLFSSGLS
B33: KLSCQAGQCWVF (peptide)
peptide: KLSCQAGQCWVF
B34: WVPQWKVTCLASCSRLFHGFDA (peptide)
peptide: WVPQWKVTCLASCSRLFHGFDA
B35: KLTCRASYCQLF (peptide)
peptide: KLTCRASYCQLF
B36: AQLRRKLTCLASYCWLFGFFSP (peptide)
peptide: AQLRRKLTCLASYCWLFGFFSP
B37: RSFTSELTCLASSCRRFHHVPP (peptide)
peptide: RSFTSELTCLASSCRRFHHVPP
B38: LRQRLAKTCVASYCWLFSLVAS (peptide)
peptide: LRQRLAKTCVASYCWLFSLVAS
B39: GAQLDKETCLASYCQLFSTVRR (peptide)
peptide: GAQLDKETCLASYCQLFSTVRR
B40: SCVKHELKCLSSDSRLFSAVQR (peptide)
peptide: SCVKHELKCLSSDSRLFSAVQR
B41: GASSDKLTCRTRHCSMFQPLSV (peptide)
peptide: GASSDKLTCRTRHCSMFQPLSV
B42: HMQWGKLPCLASYCWLFWYGIG (peptide)
peptide: HMQWGKLPCLASYCWLFWYGIG
B43: LLQIPNLTCLGSYCWLDNGVYA (peptide)
peptide: LLQIPNLTCLGSYCWLDNGVYA
B44: VQRSTQLTCLYGGCRLFGWNYH (peptide)
peptide: VQRSTQLTCLYGGCRLFGWNYH
B45: KGRCLTSHCWLF (peptide)
peptide: KGRCLTSHCWLF
B46: MLTCIASYCQLG (peptide)
peptide: MLTCIASYCQLG
B47: WHERQQLTCLASYCGLFVGQVA (peptide)
peptide: WHERQQLTCLASYCGLFVGQVA
B48: RRAPGKLQCLASYCWLFWTGAA (peptide)
peptide: RRAPGKLQCLASYCWLFWTGAA
B49: GVEDRQLTCLASSCWVFSRHSV (peptide)
peptide: GVEDRQLTCLASSCWVFSRHSV
B50: TLTCRASYCQLF (peptide)
peptide: TLTCRASYCQLF
B51: LQELTKLTCLARSGWLVCNPGY (peptide)
peptide: LQELTKLTCLARSGWLVCNPGY
B52: GEGGGKLSCVAIQCGLFKGLGR (peptide)
peptide: GEGGGKLSCVAIQCGLFKGLGR
B53: DSRSAKRKCLASYCWLFGIGQA (peptide)
peptide: DSRSAKRKCLASYCWLFGIGQA
B54: SGFGMKLTCLASYCGLFQGEIG (peptide)
peptide: SGFGMKLTCLASYCGLFQGEIG
B55: QGQARKLACLASYCWLFPSSAG (peptide)
peptide: QGQARKLACLASYCWLFPSSAG
B56: NLTGRASYGWLP (peptide)
peptide: NLTGRASYGWLP
B57: KEGFAQLPCLVCQGGLFSPRAI (peptide)
peptide: KEGFAQLPCLVCQGGLFSPRAI
B58: Biotin-PEG2-LYTAWIKCQFARLPGCALSGRW (peptide)
peptide: {Biotin-PEG2(3)}-LYTAWIKCQFARLPGCALSGRW
modifications: cysteine pairing not given here
B59: SISGQQLTCRASHCWLNLPWHS (peptide)
peptide: SISGQQLTCRASHCWLNLPWHS
B60: SYGRTKLTCLASSCWLFGQVHG (peptide)
peptide: SYGRTKLTCLASSCWLFGQVHG

The test addresses human Factor IXa (human, UniProt P00740 47-191; P00740 227-461). Nature of the test: cell-based or functional assay.
As to B1, the “EC50 [µM], FXa generation assay” value was greater than 15 µM. With B2 the figure was greater than 1 µM; with B3, greater than 20 µM; with B4, greater than 20 µM. With B5 the figure was greater than 50 µM; with B6, greater than 20 µM; with B7, greater than 20 µM. As for B8, the figure is greater than 50 µM. Consider B9, for which the “EC50 [µM], FXa generation assay” value was greater than 20 µM. With B10 the figure was greater than 25 µM. With B11 the figure was greater than 20 µM; with B12, greater than 50 µM; with B13, greater than 10 µM.

With B14, the “EC50 [µM], FXa generation assay” value is greater than 20 µM.

Turning to B15, the “EC50 [µM], FXa generation assay” value was greater than 50 µM. For B16, the “EC50 [µM], FXa generation assay” value was greater than 20 µM.

With B17, the “EC50 [µM], FXa generation assay” value was greater than 50 µM.

For B18, the “EC50 [µM], FXa generation assay” value is greater than 20 µM. With B19 the figure was greater than 20 µM; with B20, greater than 10 µM. As for B21, the figure is less than 0.5 µM; as for B22, less than 0.5 µM. Take B23: the “EC50 [µM], FXa generation assay” value is greater than 20 µM. As for B24, the figure is less than 0.5 µM.

Consider B25, for which the “EC50 [µM], FXa generation assay” value was greater than 5 µM.

Turning to B26, the “EC50 [µM], FXa generation assay” value was greater than 50 µM. With B27 the figure was greater than 1 µM; with B28, less than 0.5 µM; with B29, greater than 20 µM.

On to B30, for which the “EC50 [µM], FXa generation assay” value was greater than 50 µM.

With B31, the “EC50 [µM], FXa generation assay” value is greater than 20 µM. With B32 the figure was greater than 20 µM; with B33, greater than 1 µM. As for B34, the figure is greater than 5 µM. In the case of B35, the “EC50 [µM], FXa generation assay” value is greater than 1 µM. With B36 the figure was greater than 1 µM. With B37 the figure was greater than 20 µM; with B38, greater than 10 µM.

B39: the “EC50 [µM], FXa generation assay” value is greater than 20 µM.

With B40, the “EC50 [µM], FXa generation assay” value is greater than 20 µM. Regarding B41, the “EC50 [µM], FXa generation assay” value was greater than 20 µM. For the molecule B42, the “EC50 [µM], FXa generation assay” value is greater than 1 µM. For the molecule B43, the “EC50 [µM], FXa generation assay” value is greater than 50 µM.

As for B44, the “EC50 [µM], FXa generation assay” value was greater than 20 µM. With B45 the figure was greater than 20 µM; with B46, greater than 20 µM. As for B47, the figure is less than 0.5 µM; as for B48, greater than 1 µM; as for B49, greater than 1 µM. With B50 the figure was greater than 1 µM. In the case of B51, the “EC50 [µM], FXa generation assay” value was greater than 20 µM. Regarding B52, the “EC50 [µM], FXa generation assay” value is greater than 50 µM. For the molecule B53, the “EC50 [µM], FXa generation assay” value is greater than 20 µM. As for B54, the figure is less than 0.5 µM. On to B55, for which the “EC50 [µM], FXa generation assay” value was greater than 50 µM. In the case of B56, the “EC50 [µM], FXa generation assay” value was greater than 20 µM.

B57: the “EC50 [µM], FXa generation assay” value is greater than 20 µM. With B58 the figure was greater than 10 µM; with B59, greater than 20 µM; with B60, greater than 10 µM.
